Results from publication PMC2921345.
One block for each substance: values may come before it.

What was measured:
[1] = molecular target: mRFP-Toca-1 (Transducer of Cdc42-dependent actin assembly, wild type); assay: AP-FRET (acceptor photobleaching FRET) in transfected cells
[2] = molecular target: mRFP-Toca-1 (Transducer of Cdc42-dependent actin assembly, wild type) (human); assay: FRET or BRET; frequency-domain FLIM of the GFP donor (LIFA system, 40 MHz) in cells co-expressing GFP and mRFP proteins; lifetime of GFP in cells approximately 2.2 ns
mRFP-Toca-1 (Transducer of Cdc42-dependent actin assembly, wild type) (human), sequence (Q5T0N5 whole entry): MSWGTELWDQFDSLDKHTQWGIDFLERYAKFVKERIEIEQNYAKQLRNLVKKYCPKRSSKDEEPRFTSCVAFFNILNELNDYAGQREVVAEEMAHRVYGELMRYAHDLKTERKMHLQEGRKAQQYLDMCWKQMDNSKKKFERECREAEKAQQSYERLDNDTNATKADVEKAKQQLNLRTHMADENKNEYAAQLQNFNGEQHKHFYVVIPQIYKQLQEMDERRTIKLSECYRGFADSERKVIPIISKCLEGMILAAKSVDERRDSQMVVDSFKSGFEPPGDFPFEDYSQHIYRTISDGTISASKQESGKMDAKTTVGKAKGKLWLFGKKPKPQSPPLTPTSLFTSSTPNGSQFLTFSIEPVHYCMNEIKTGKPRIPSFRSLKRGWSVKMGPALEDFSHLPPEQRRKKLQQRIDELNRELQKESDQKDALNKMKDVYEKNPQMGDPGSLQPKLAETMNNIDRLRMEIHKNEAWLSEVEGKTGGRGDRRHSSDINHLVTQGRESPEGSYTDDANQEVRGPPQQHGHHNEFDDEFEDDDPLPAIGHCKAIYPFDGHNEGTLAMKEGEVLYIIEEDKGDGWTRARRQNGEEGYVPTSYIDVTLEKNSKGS

[3] = molecular target: GFP-N-WASP (neuronal Wiskott Aldrich syndrome protein, wild type) (UniProt O08816); assay: AP-FRET (acceptor photobleaching FRET) in transfected cells; details: mRFP-Toca-1MGD383-385IST and GFP-N-WASP; 36 hr expression; n = 7-10, from 2-3 experiments

other: FRET efficiency ([1]; ROI on tubules, mRFP-Toca-1, HA-N-WASP and GFP-Cdc42G12V co-expressed, 36 hours expression): 9%
other: FRET efficiency ([1]; ROI on vesicles, mRFP-Toca-1, HA-N-WASP and GFP-Cdc42G12V co-expressed, 36 hours expression): 0.03%
Substance: Cdc42 (wild type) G12V

GFP donor lifetime (FLIM), in tubules [2]: 1.59 ns
GFP donor lifetime (FLIM), in vesicles [2]: 1.64 ns
Substance: GFP-N-WASP (neuronal Wiskott Aldrich syndrome protein, wild type) (from UniProt O08816 1-501) (natural protein)

other: FRET efficiency ([1]; mRFP-Toca-1 and GFP-N-WASPH208D, 36 hr expression, n = 7-10, from 2-3 experiments): 3.87%
Substance: GFP-N-WASP (neuronal Wiskott Aldrich syndrome protein, wild type) (from UniProt O08816) H208D

other: FRET efficiency [3]: 17.5%
Substance: mRFP-Toca-1 (Transducer of Cdc42-dependent actin assembly, wild type) M383I; G384S; D385T
